This is an account of results in patent US20140199302A1 (GENERAL HOSPITAL, published 2014).

The target in assay [1] is T1, soluble human hemojuvelin with a HIS-tag (HJV.His) (human, UniProt Q6ZVN8 36-400, limits assumed).
T1 construct: also called monomeric HJV.His; not shown: HIS-tag
T1 sequence (looked up): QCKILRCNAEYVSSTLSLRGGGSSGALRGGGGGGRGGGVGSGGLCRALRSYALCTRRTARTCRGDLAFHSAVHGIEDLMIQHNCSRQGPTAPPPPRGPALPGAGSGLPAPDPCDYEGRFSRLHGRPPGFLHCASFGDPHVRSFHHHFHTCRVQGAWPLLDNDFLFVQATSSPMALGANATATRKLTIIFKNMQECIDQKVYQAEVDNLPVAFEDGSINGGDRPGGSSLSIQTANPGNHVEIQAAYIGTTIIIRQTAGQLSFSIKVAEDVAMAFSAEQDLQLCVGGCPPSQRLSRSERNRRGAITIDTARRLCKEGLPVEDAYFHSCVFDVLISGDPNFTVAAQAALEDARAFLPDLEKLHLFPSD
The assay can be described thus: Biacore SPR, HJV.His in solution over human BMP6 immobilized on a CM5 chip by amine coupling; 1:1 binding fit (Chi2 9.32 printed beside it).

The target of assay [2] is T1, soluble human hemojuvelin with a …. In words: SPR (Biacore), human BMP6 amine-coupled on CM5 chip, one-site univalent fit model; monomeric HJV.His; one-site univalent fit.

B1: human BMP6 (ligand, UniProt P22004 382-513, looked up)
chain: QQSRNRSTQSQDVARVSSASDYNSSELKTACRKHELYVSFQDLGWQDWIIAPKGYAANYCDGECSFPLNAHMNATNHAIVQTLVHLMNPEYVPKPCCAPTKLNAISVLYFDDNSNVILKKYRNMVVRACGCH
notes: also called bone morphogenic protein-6
Regarding B1, the dissociation constant Kd was 36 nM in assay [1] and around 33 nM in assay [2].

By Kd is commonly meant the free concentration of one partner at which half of the binding sites on the other are occupied at equilibrium, for simple one-to-one binding.
